T1: mouse HVEM (mouse, UniProt Q80WM9)
T1 chain: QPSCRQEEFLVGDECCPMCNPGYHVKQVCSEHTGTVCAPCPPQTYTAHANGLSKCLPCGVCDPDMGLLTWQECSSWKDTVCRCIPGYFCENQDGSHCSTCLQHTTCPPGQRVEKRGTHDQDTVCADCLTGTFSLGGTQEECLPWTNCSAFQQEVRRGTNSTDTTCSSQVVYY

T2: human HVEM (human, UniProt Q92956)
T2 chain: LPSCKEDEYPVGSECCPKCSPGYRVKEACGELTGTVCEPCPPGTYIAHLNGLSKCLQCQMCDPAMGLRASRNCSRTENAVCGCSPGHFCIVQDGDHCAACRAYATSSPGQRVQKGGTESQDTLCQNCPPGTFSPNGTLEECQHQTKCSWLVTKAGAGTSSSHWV

B1: 26C3 (protein)
chain 1: QVQLQQPGSELVRPGASVKLSCKASGYTFTSYWMHWVKQRPGQGLEWIGDIYPGSDGTNYDEKFKSKATLTVDTSSSTAY
chain 2: DIQMTQTTSSLSASLGDRVTISCRASQDISNSLNWYQQKPDGTVKLLIYYTSRLHSGVPSRFSGSGSGTDYSLTISNLE
B2: 52B7 (protein)
chain 1: QVQLKQSGPGLVQPSQSLSITCTVSGFSLTIYGVHWIRQSPGKGLEWLGVIWTGGNTDYNAAFMSRLSITKDNSKSQVFF
chain 2: EIVLTQSPALMAASPGEKVTITCSVSSNISSGNLHWYQQKSETSPKPWIYGTSNLASGVPVRFSGSRSGTSYSLTISSME
B3: 22G5 (protein)
chain 1: EVQLQESGGGLVQPGGSRKLSCAASGFTFSSFGMHWVRQAPEKGLEWVAFISSGSSSIYYADTVKGRFTISRDNPRNTL
chain 2: DVVMTQTPLSLPVSLGDQASISCRSSQSLVHSNGNTYFHWYLQKPGQSPKLLIYKVSNRFSGVPDRFSGSGSGTDFTLKI

Experiments:
mouse HVEM = molecular target: T1, mouse HVEM; experiment: ELISA
human HVEM = molecular target: T2, human HVEM; experiment: SPR

| Binder | binding result (mouse HVEM) | Kd (human HVEM) |
| --- | --- | --- |
| B1 | no binding |  |
| B2 | no binding | 0.705 pM |
| B3 | no binding |  |
